Experimental findings from paper PMC9604513, “De novo selected hACE2 mimics that integrate hotspot peptides with aptameric scaffolds for binding tolerance of SARS-CoV-2 variants” (Science Advances, 2022) are described below.

Series [1] concerns the target SARS-CoV-2 RBD wild type (SARS-CoV-2 (wild type)) (UniProt P0DTC2). The series can be described thus: flow cytometry bead binding. The following applies: 5'-hexynyl clicked to C-terminal azide of peptide LGKGDFR.
A further series has as its system pseudotyped SARS-CoV-2. The series is classed as cell-based, SARS-CoV-2 (human hACE2-293T cells).
Another series has as its target RBD-hACE2 binding (Severe acute respiratory syndrome coronavirus 2, UniProt P0DTC2). The conditions noted are these: ELISA, 3 μM, n = 3 independent replicates.

Regarding “GGAAGAGATGGCGACCACACCAAATCTGAGTCTACCCCATGAAGGAGCTGATCCTGATGG [R7-03 hybrid ligand (LGKGDFR-DNA)]”, in series [1], the binding signal (RBD-binding fraction relative to R7-02) came out at 0.125. Still for that read-out and setting: with “GGAAGAGATGGCGACCTCCACAACCGCTGATCGACGCAGATCTTGTGGGTAGCTGATCCTGATGG [R7-01 hybrid ligand (LGKGDFR-DNA)]” the figure was 0.2. Take LGKGDFR [LGKGDFR peptide]: in the series on pseudotyped SARS-CoV-2, the “percentage of GFP-expressing infected cells over the total hACE2-293T cells” value came to 22.0%. On RBD-hACE2 binding, the “inhibition of RBD-hACE2 interaction” value was determined as 11.69%.
